This experiment deals with T1, syntaxin3 (Rattus norvegicus (Rat), UniProt Q08849).
T1 chain: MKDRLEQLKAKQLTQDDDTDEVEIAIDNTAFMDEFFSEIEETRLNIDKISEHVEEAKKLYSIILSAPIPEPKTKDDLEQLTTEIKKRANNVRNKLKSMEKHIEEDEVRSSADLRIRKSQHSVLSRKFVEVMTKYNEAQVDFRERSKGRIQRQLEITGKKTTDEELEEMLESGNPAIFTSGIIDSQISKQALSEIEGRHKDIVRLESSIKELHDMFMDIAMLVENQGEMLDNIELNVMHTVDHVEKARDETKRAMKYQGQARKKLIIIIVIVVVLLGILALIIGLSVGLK
In words: pull-down.

B1: Munc18c (protein)
chain: MAPPVSERGLKSVVWRKIKTAVFDDCRKEGEWKIMLLDEFTTKLLSSCCKMTDLLEEGITVIENIYKNREPVRQMKALYFISPTPKSVDCFLRDFGSKSEKKYKAAYIYFTDFCPDSLFNKIKASCSKSIRRCKEINISFIPQESQVYTLDVPDAFYYCYSPDPSNASRKEVVMEAMAEQIVTVCATLDENPGVRYKSKPLDNASKLAQLVEKKLEDYYKIDEKGLIKGKTQSQLLIIDRGFDPVSTVLHELTFQAMAYDLLPIENDTYKYKTDGKEKEAVLEEDDDLWVRVRHRHIAVVLEEIPKLMKEISSTKKATEGKTSLSALTQLMKKMPHFRKQISKQVVHLNLAEDCMNKFKLNIEKLCKTEQDLALGTDAEGQRVKDSMLVLLPVLLNKNHDNCDKIRAVLLYIFGINGTTEENLDRLIHNVKIEDDSDMIRNWSHLGVPIVPPSQQAKPLRKDRSAEETFQLSRWTPFIKDIMEDAIDNRLDSKEWPYCSRCPAVWNGSGAVSARQKPRTNYLELDRKNGSRLIIFVIGGITYSEMRCAYEVSQAHKSCEVIIGSTHILTPRKLLDDIKMLNKSKDKVSFKDE
Consider B1, for which the binding result is on record as “no binding”.

The values above are taken from article PMC4575180 (2015).
